The source of these data is the nanobody polyreactivity screen of Harvey et al. (2022).

The series is described as follows: yeast display, Sf9 membrane polyspecificity reagent, FACS + sequencing; frameworks hold sequencing errors. The method, boiled down: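 Nanobodies from a synthetic yeast display library (Saccharomyces cerevisiae BJ5465), induced 36–48 hours with galactose, were stained 1 hour at 4 °C with 10% biotinylated, detergent-solubilized Sf9 membrane reagent, enriched on streptavidin microbeads, then FACS-sorted. Anti-HA (expression) and streptavidin (reagent binding) fluorescence set low and high (top ~1%) gates. Polyreactivity labels come from the gate of origin. Genes were colony-PCR amplified, MiSeq 2 × 250 sequenced and filtered by CDR length.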
In the case of “QVQLVESGGGLVQAGGSLRLSCAASGSIVWYNAMGWYRPAPGKERELVAAITWSGGSTYYADSVKGRFTISRDNAKNTVYLQMNSLKPEDTAVYYCAADVKRDRVWGGDYWGQGTQVTVSS”, the “polyreactivity (PSR sort gate)” value is “low polyreactivity”. As for “QVQLLESGGGLVQAGGSLRLSCAASGAIFFIYVMGWYRQAPGKERELVAAISGSGGPTYYADSVKVRFTISRDNAKNTVFLQMNRLKPEDTAVYYCAARGYRGRMGYWGQGTQVTVSS”, the “polyreactivity (PSR sort gate)” value is given as “low polyreactivity”. For the sequence “QVQLVESGGGLVQAGGSLRLSCAASGSIFLWNAMGWYRQAPGKEREFVASITSRGGSTYYADSVKGRFTISRDNAKNTVYLQMNSLKPEDTAVYYCAAVRSKYLYYQGGYSSYGYWGQGTQVTVSS”, the “polyreactivity (PSR sort gate)” value was “high polyreactivity”.

Consider “QVQLVESGGGLVQAGGSLRLSCAASGRTFSTYAMGWYRQAPGKERELVAAITTSGGNTYYADSVKGRFTISRDNAKNTVYLQMNSLKPEDTAVYYCNAKQQPYGGTDYDYWGQGTQVTVSS”, for which the “polyreactivity (PSR sort gate)” value was “low polyreactivity”.

For the sequence “QVQLVESGGGLVQAGGSLRLRCAASGRIFTYYAMGWYRPAPGKERELVAAISWSGGSTYYADSVKGRFTISRDNAKNTVYLQMNSLKPEDTAVYYCNAVYPSVYPVSTRYYWGQGTQVTVSS”, the “polyreactivity (PSR sort gate)” value is on record as “high polyreactivity”. Regarding “QVQLVESGGGLVQAGGSLRLSCAASGRTFTVYAMGWNRQAPGKEREFVATSSWSGGRTYYADSVKGRFTISRDNAKYTVYLQMNSLKPEDTAVYYCAAQEYTTRFYFNRDYWGQGTQVTVSS”, the “polyreactivity (PSR sort gate)” value is “low polyreactivity”. With “QVQLVESGGGLVQAGGSLRLSCAASGSIFTWNGMGWYRQAPGKERELVAAISNGASTNYADSVKGRFTISRDNAKNTVYLQMNSLYPEDTAVYYCAAKSTGRYDYWGQGTQVTVSS”, the “polyreactivity (PSR sort gate)” value is recorded as “low polyreactivity”. Consider “QVQLVESGGGVVQAGGSLRLTCAASGRTFYVYAMGWYRQAPGKEREFVAAITSSGGSTYYADSVKGRFTISRDNAKNTVYLQMNSLNPEDTAVYYSDAEWSTPSYVGFADGFEYWGQGTQVTVSS”, for which the “polyreactivity (PSR sort gate)” value is “low polyreactivity”.

For the sequence “QVQLVESGGGLVQAGGSLRLTSAASGFIFWPYLMGWYRQAPGKDRELVAAISQGDGSTYYADSVKVRFTISRDNAKNTVYLQMNSLKGEDTAVYYCAADVTVAWYPVYPGFYYWGQGTQVTVSS”, the “polyreactivity (PSR sort gate)” value is given as “low polyreactivity”.

Turning to “QVQLVESGGGLVQAGGSLRLSCAASGSILWQYAIGRYRQAPGKEMELVAAINQRGGSTYYADSVKGRFTISRDYAKNTVYLQMNSLKPEDTAVYYCNTYPTRTYPSYYYWGQGTQVTVSS”, the “polyreactivity (PSR sort gate)” value is “high polyreactivity”. On to “QVQLVESGGGLVQAGGSLRLSCAASGRIFARNALGWYRQAPGKEGELVARIRASGGSTYYADSVKGRFTISRDNEKNTVYLQMNSLKPEDTAVYYCNARTSSPYRVDYWGQGTQVTVSS”, for which the “polyreactivity (PSR sort gate)” value is recorded as “high polyreactivity”.

Consider “QVQLQESGGGLVQAGGSLRLSCAASGTISPLPAMGWYRQAPGKEREFVAGIDTGAITNYADSVKGRFTISRDNAKNTVYLQMISLKPEDTAVYYCAVFPAAYYYYERFYTYWGQGTQVTVSS”, for which the “polyreactivity (PSR sort gate)” value is recorded as “low polyreactivity”. For the sequence “QVQLVESGGALVQAGGSLRLSCAASGFIVDAYAMGWYRQAPGKERELVAALTRGNTYYADSVKGRFTISRDNAKNTVYLQMTSLKPEDTGVSCCAARSWQSYRSQVTHSSTLDYWGQGTQVTVSS”, the “polyreactivity (PSR sort gate)” value was “low polyreactivity”. As for “QVQLVESGGGLVQAGGSLRLSCAASGLTFAQNAMGWYRQAPGKERELVAAITRSGGRTYYADSVKGRFTISRDNSKNTVYFQMNSLKPEDTAVYYCAARVLQYSGYYYWGQGTQVTVSS”, the “polyreactivity (PSR sort gate)” value is listed as “high polyreactivity”. Regarding “QVQLVESGGGLVQAGGSLRLSCAASGSIFWLYAMGCYRQAPGKERELVAGISQNGGSTTYADSVKGRFTISRDNAKNTVYFQMNSLKPEDTAVYYCAAKRYGPFKYGYWGQGTQVTVSS”, the “polyreactivity (PSR sort gate)” value is listed as “high polyreactivity”. The result for “QVQLVESGGGLVQAGGSLRLSCAASGSTFRQYAMGWYRQAPGKERELVAAITWRGDNTYYADSVKGRFTISRDNAKNTVYLQMNSLKPEDTAVYYCAARWSYRLYWGYGYWGQGTQVTLSS” reads “low polyreactivity”; that for “QVQLVESGGGLVQAGGSLRLSCAASGRTFLHNAKGWYRQAHGKERELVAAIDSGGTTHYADSVKGRFTISRDNAKNTVYLQMKSLKPEDTAVYYCAARPTRGNWWYGYWGQGTQVTVSS”, “low polyreactivity”. Consider “QVQLVESGGGLVQAGGSLRLSCAASGSIFGWYVMGWYRQAPGKERELVAAISSGGSTNYADSVKGRFTISRDNAKNTVYLQMNSLKPEDTAVYYCAKRFRRTPYRNTYKPYDRYYWGQGTQVTVSS”, for which the “polyreactivity (PSR sort gate)” value is recorded as “high polyreactivity”. For “QVQLVESGGGLVQAGGSLRLSCAASGSTFFVNAMGWYRQAPGKERELVASITVSSGRTYYADSVKGRFTISRDNAKNTVYLQMNSLKPEDTAVYYCAARHLYWRREGYYWGQGTQVTVSS”, the “polyreactivity (PSR sort gate)” value is given as “high polyreactivity”.

Take “QVQLVESGGGLVQAGGSLRLTCAASGRTFGTYAMGWSRQAPGKERELVAVITNGGGTYYADSVKGRFTISRDNAKNTVYLQMNSLKPEDTAVYYCNTDRYGLRRWVYSYWGGYDYWGQGTQVTVSS”: the “polyreactivity (PSR sort gate)” value is “low polyreactivity”. As for “QVQLVESGGGLVQAGGSLRLSCAASGRIFDIYAMGWYRQAPGKERELVAAITSGGSTYYADSVKGRFTNSRDNAKNTVYFQMNILKPEYTAVYYCAADSVLLKDTGYDYWGKGTQVTVSS”, the “polyreactivity (PSR sort gate)” value was “low polyreactivity”. In the case of “QVQLVESVGGLVQAGGSLRLSCAASGITFSTNAMGWYRQAPGKERELVAAITSVTSTYYADSVKGRFTISRDNAKNTVYLQMNSLKPEDTAVYYCASRLSRWPYFYEYNYWGQGTQVTVSS”, the “polyreactivity (PSR sort gate)” value was “low polyreactivity”. “QVQQQESGGGLVQAGGSLRLSCAASGYISVVIGMGWYRQSPGKERELVASIAYGAITYYTDSVKGRFTISRDYAKNTEYLQMNSLKAEDTAVYYCAADKPPLAYHWYWGQGTQATVSS”: the “polyreactivity (PSR sort gate)” value was “high polyreactivity”. Consider “QVQLVESGGGLVQAGGSLRLSCAASGRTFAKYAMGWYRQAPGKERELVAAISDSGGSTYYADSVKGRFTISRDNAKNTVYLQMNSLKPEDTAVYYCAADGRYTYYWGQGTQVTVSS”, for which the “polyreactivity (PSR sort gate)” value is given as “high polyreactivity”. For “QVQLVESGGGLVQAGGSLRLSCAASGFIFRYYAMGWYRQAPGKERELVAAISGSGGSTYYADSVKGRFTISRDNAKNTVYLQMNSLKPEDTAVYYCAAYYYGYEYWGQGTQVTVSS”, the “polyreactivity (PSR sort gate)” value is listed as “high polyreactivity”. For “QVQLVESGGGLVQAGGSLRLSCAASGSTFLNYAMGWYRQAPGKERELVAAISFSGGRTYYADSVKGRFTISRDIAKNTVYLQMNSLKPEDTAVYYCGAGGWRGHYYCGQGTQVTVSS”, the “polyreactivity (PSR sort gate)” value is “high polyreactivity”. Regarding “QVHLVESGGGLVQAGGSLRLSCADSGSIFRYYAMGWYRQAPGKEREMFARISWSGVSTYYADSVKGRFTISRDNAKNTVYLQMNSLKTEDTADYYCAGVDFRGYRYDLDYWGQGTQVTVSS”, the “polyreactivity (PSR sort gate)” value is listed as “high polyreactivity”. Consider “QVQHVESGGGLVQAGGSLRLSCAASGSIFTVNAMGWYRQAPGKERELVAAIDGSSGSTNYADSVKGRFTISRDNAKNTVYLQMNSLKPEDTAVYYCAADWSYEYGYWGQGTQVTVSS”, for which the “polyreactivity (PSR sort gate)” value was “low polyreactivity”. In the case of “QVQLVESGGGLVQAGGSLRLSCAASGTFVTYMGWYRQAPGKERELVAAIRNGGSTNYADSVKGRFTISRDNAKNTVYLQMNSLKPEDTAVYYCAARVTYSRGYRGGSRTKYDYWGQGTQVTVSS”, the “polyreactivity (PSR sort gate)” value is given as “low polyreactivity”.

Take “QVQLVESGGGLVQAGGSLRLSCAASGRTFYYYAMGWYRQAPGKEREFVAAITYRGDSTNYADSVKGRFTISRDNAKNTVYLQMNSLKPEDTAVYYCAADSPYQIYYYWGQGTQVTVSS”: the “polyreactivity (PSR sort gate)” value is on record as “low polyreactivity”. Take “QVQLVESGGGLVQAGGSLRLSCAASGRIFVPNAMGWYRQAPGKERELVAAISSSGGSTYYADSVKGRFTISRDNAKNTVYLQMNSLKPEDTAVYDCNKVQSTANDYWGQGTQVTVSS”: the “polyreactivity (PSR sort gate)” value is listed as “low polyreactivity”. As to “QVQLVESGGVLVQAGGSLRLSCAASGSIYTWYAMGWYRQAPGKERELVAAITRGGSTYADSVKGRFTISRENAKNTVYLQMNSLKPEDTAVYYCNAVYGVYDFNYWGQGTQVTVSS”, the “polyreactivity (PSR sort gate)” value is on record as “low polyreactivity”. In the case of “QVQLVESGGGLVQAGGSLRLSCAASGSTFAKNAMGWYRQAPGKERELVAAITASGGSTYYADSVKGRFTISRDNAKNTVSLQMNSLKPEDTAVYYCAKSSYLTRGSRYDYWGQGTQVTVSS”, the “polyreactivity (PSR sort gate)” value was “low polyreactivity”.

With “QVQLVESGGGLVQAGGSLRLSCAASGSTFDFYAMGLYRQAPGKERELVAAITSGGTTNYADSVKGRFTISRDNAKNTVYLQMNSLKPEDTAVYFCNAYYLGWYRVRAVTGYDYCGQGTQVTVSS”, the “polyreactivity (PSR sort gate)” value was “low polyreactivity”. In the case of “QVQLVESVGGLVQAGGSLRLSCAASGSTFLRYAMGWYRQAPGKERELVAAITASGGSTYYADSVKGRFTISRDNAKKSVYLQMNSLKPEDTAVYYCAADGRYIGKNSHDLWIYGYYYWGQGTQVTVSS”, the “polyreactivity (PSR sort gate)” value is listed as “low polyreactivity”. Consider “QVQLVESGGGLVQAGVSLRLSCAASGRIFDRNAMGWYRQAPGKERELVARISRTGGSTYYADSVKGRFTISRDNAKNTVYLQMNSLKPEDTAVYYSAASRGGGYDYWGQGTQVTVSS”, for which the “polyreactivity (PSR sort gate)” value was “high polyreactivity”.

With “QVQLVESGGGLVQAGGSLRFSCAASGYIFSLNGRGWYRQAPGKERELVAAISSSGGRTYYADSVKGRFTISRDNAKNTVYLQMNSLKPEDTAVYYCAAEVYLSTYYQDMNYWGQGTQVTVSS”, the “polyreactivity (PSR sort gate)” value is given as “high polyreactivity”.

Regarding “QVQLVESGGGLVQAGCSLRLSCAASGFTFGRNAMGWYRQAPGKEREFVADISGSVGSTYYADSVKGRFTISRDNAKNTVYLQMNSLKPEDTAVYYCAADTLYPRWEFDYWGQGTQVTVSS”, the “polyreactivity (PSR sort gate)” value is “high polyreactivity”. In the case of “QVQLVESGGGLVQAGGSLRLSCAASGRIGYYAMGWYRQAPGKERELVAAISYGGGSTYYADSVKGRFTISRDNAKNTVYLQMNSLKPEDTAVYYCAARWGISWRGYGYWGQGTQVTVSS”, the “polyreactivity (PSR sort gate)” value is “high polyreactivity”. In the case of “QVQLVESGGGLDQAVGSLRLSCAASGSIFKPYAMGWYRQAPGKERELVAGITAGGGSTYYADSVKGRFTISRDNAKNTVYLQMNSLKPEDTAVYYCSVDPYNIFTDDIVENDYWGQGTQVTVSS” it was “low polyreactivity”; in that of “QVQLVESGGGLVQAGGRLRISCAASGSIFEINAMGWYRQAPGKERELVAAITGSGGSTHYADSVKGRFPISRDNAKNTVYLQMNCLKPEDTAVYYCAAVPRYQYGYLGQGTQVTVSS”, “low polyreactivity”.
